# Measured values taken from US20210079101A1 (LABORATOIRE FRANAIS DU FRACTIONNEMENT ET DES BIOTECHNOLOGIES, published 2021).
# B1: P3 scFv-Fc (Fc fusion)
# chain: QVQLQQSGPGLVKPSQTLSLTCAISGDSVSSNNFGWNWIRQSPSRGLEWLGRTYYRSKWYNDYAVSVRSRITINPDTSKNQFSLQLNSVTPEDTAVYYCARQGSTYFDYWGQGTLVTVSSEFGGGGSGGGGSGGGGSRDIVMTQSPSSLSASVGDRVTITCRASQTISSSLAWFQQRPGEAPNLLIYSASSLQSGVPSRFSGSGSGTDFTLTISSLQPEDFATYSCQQTYSAPPTFGGGTKLEIK
# notes: these probably describe the HEK construct without the 2 extra cysteines; also called scFv-Fc P3; Human P3 scFv-Fc; not shown: human IgG1 Fc domain with 2 extra cysteine residues at the C-terminal end (baculovirus/Sf9 construct)
# Molecular target: T1, Galectin-3 protein (human, UniProt P17931 2-250)
# T1 construct: Endogenous antigen in human atheroma tissue sections; also called Gal3
# Experiment: double immunofluorescence staining of human endarteriectomy sections (colocalisation with anti-galectin-3 antibody)
# Excerpt: FIG. 3: Immunofluorescent staining of human endarteriectomy sections and aortas of ApoE^{-/-} and WT mouse with P3 scFv-Fc or commercial control antibodies. (A) Double immunofluorescence staining of human endarteriectomy sections. […] Size bars: 50 μm. (B) Fluorescent macroscopy of P3 scFv-Fc after ex vivo injection in ApoE^{-/-} mouse and WT mouse. A human IgG was used as a negative control antibody.
# Human tissue specimens were provided by Pr DUCASSE Eric, vascular surgeon at CHU Pellegrin. For immunofluorescence stainings, human sections were deparaffinised and rehydrated. After a retrieval step (pH9), slides were blocked with (1) PBS/1% BSA/0.2% Triton X10 followed by (2) 5% goat serum and (3) addition of goat anti human IgG H+L and Fcγ specific diluted at 100 μg/mL. Primary scFv-Fc produced in baculovirus or commercially available antibodies were added overnight at 4° C. Slides were incubated with scFv-Fc diluted at 50 μg/mL in PBS/1% BSA and, as controls, secondary antibody alone or commercial antibodies according to the manufacturer's instructions. […] After 1h incubation, slides were washed in PBS 3 times and mounted with Vectashield (VWR, France).
# T1 sequence (P17931 2-250 limits assumed): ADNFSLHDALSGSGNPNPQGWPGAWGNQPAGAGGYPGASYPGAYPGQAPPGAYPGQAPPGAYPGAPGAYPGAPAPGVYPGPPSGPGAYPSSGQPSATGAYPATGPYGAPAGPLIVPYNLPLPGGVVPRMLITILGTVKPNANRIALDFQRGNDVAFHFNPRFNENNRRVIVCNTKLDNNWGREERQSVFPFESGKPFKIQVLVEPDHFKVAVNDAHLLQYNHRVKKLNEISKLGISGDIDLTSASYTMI
binder,measurement,value
B1,binding result,binds
